Data as given in US8501695B2, “Tissue kallikrein for the treatment of diseases associated with amyloid protein” (DiaMedica, Inc., priority 2007, dated 2013).
Values joined by “and” are separate entries in the source; they are usually repeats but may differ in a detail not shown here. Equal entries are not always repeated.

Assay: Pharmacokinetic study of intranasal tissue kallikrein (125I-KLK1 tissue concentrations by gamma counting)
Type: in vivo
Conditions: rat, 30 min. end point, individual animal, listed as kallikrien
Description: The purpose of this study was to quantify the amount of tissue kallikrein (KLK1) reaching the central nervous system and peripheral tissues after intranasal administration to anesthetized rats. At 30 min after KLK1 administration, animals were transcardially perfused with ice-cold saline followed by paraformaldehyde fixative and tissues were dissected. The amount of radiolabeled KLK1 in each tissue sample was quantified by gamma counting and tissue concentrations were calculated using tissue weight and gamma counting of standards of the dosing solutions
Adult male Sprague Dawley rats (n=10, mean 335.4 g±4.57 g SE) were used for this study. Animals were group housed in the Regions Hospital Animal Care Facility with free access to food and water. Animals were kept on a 12 h light cycle. All experimental procedures were approved by the Animal Care and Use Committee at Regions Hospital under IACUC protocol number 08-022.
Tissue kallikrein was sent to Perkin-Elmer for ^125I-labelling (Quote NEX-084, lot C1541583). Non-labeled KLK1 from Sigma (cat#K3627-1KU, lot 018K1441) was also used. Non-labeled KLK1 was dissolved in 1×PBS (10×PBS, Sigma, cat #P5493, lot 027K8405 diluted in sterile water). The average dose was 48.1 μL, 75 μCi, and 2.6 mg.
• a. Prior to anesthesia, each rat was weighed. • b. An anesthesia cocktail was prepared and full, half, and quarter anesthesia doses were calculated according to the animal's weight with a full dose containing 30 mg/kg ketamine, 6 mg/kg xylazine, and 1 mg/kg acepromazine. • c. A 1-cc syringe fitted with a 25 G or 27 G, ½ inch needle was assembled and a full dose was drawn into the syringe for injection. • d. Rats were restrained in a towel as follows. Rats were placed ventral side down in the middle of a hand towel. The towel was then wrapped around the head and shoulders to restrain. Wrapped animals remained ventral side down while the left hind leg was located. • e. The left hind leg was drawn to the side and the needle was inserted just beneath the skin (subcutaneous) above the thigh. After ensuring that the needle was placed subcutaneously (and not intramuscularly), full doses were injected. Rats were placed in holding cages and the injection time noted. Animals should be under within 5 min. • f. Anesthesia was monitored throughout the procedures by assessing reflexes using pinching of the hind paw or tail. If a reflex was present, a half or quarter dose booster was administered as necessary. • g. During drug administration, animals received a half dose booster roughly 20-25 min after initial dose. Intranasal Delivery of ^125I-KLK1 • a. Anesthetized rats were placed on their backs on a heating pad in a metal surgical tray. The heating pad was connected to a thermostat and was automatically regulated to maintain a 37° C. temperature based on continuous measurement from a rectal probe. • b. A 2″×2″ gauze pad was rolled tightly into a pillow, taped together, and under the neck to maintain a correct neck position horizontal with the counter. • c. A lead impregnated shield was placed between the surgical tray and the experimenter for protection against radiation. The dose solution, pipette, pipette tips, and waste receptacle were arranged behind the shield for easy access. • d. A 6 μL drop was loaded into the pipette behind the shield. • e. A cotton swab covered in parafilm was used to occlude one naris completely (the flat part of the swab was pushed gently against the naris to prevent airflow), while the 6 μL drop was expelled slowly from the pipette (held at a 45° angle from the rat's midline), forming a drop on the pipette tip. The drop was lowered onto the open naris to be inhaled. • f. After two minutes, the alternate naris was occluded and a 6 μL drop was administered in the same fashion. • g. A drop was administered as described above every two minutes to alternating nares until a total of 8 drops was delivered (4 to each naris) over 14 min. • h. […]

B1: tissue kallikrein: serine protease that cleaves kininogen into kallidin; polypeptide SEQ ID NO:1 (Sus scrofa kallikrein 1), KLK1 from Sigma (protein, listed as Sus scrofa)
chain: MWSLVMRLALSLAGTGAAPPIQSRIIGGRECEKDSHPWQVAIYHYSSFQCGGVLVDPKWVLTAAHCKNDNYQVWLGRHNLFENEVTAQFFGVTADFPHPGFNLSLLKNHTKADGKDYSHDLMLLRLQSPAKITDAVKVLELPTQEPELGSTCQASGWGSIEPGPDDFEFPDEIQCVELTLLQNTFCADAHPDKVTESMLCAGYLPGGKDTCMGDSGGPLICNGMWQGITSWGHTPCGSANKPSIYTKLIFYLDWINDTITENP
modifications: 125I label in one form
  concentration in Lung (R, top lobe): 48.6 nM and 48.7 nM and 46.8 nM and 18.2 nM and 37.2 nM and 30.1 nM and 27.9 nM and 24.4 nM and 64.3 nM and 25.5 nM
  concentration in Medulla: 12.3 nM and 9.9 nM and 13.99 nM and 17.4 nM and 11.1 nM and 21.0 nM and 21.1 nM and 10.6 nM and 20.5 nM and 10.8 nM
  concentration in Midbrain: 12.3 nM and 9.5 nM and 13.1 nM and 15.3 nM and 10.0 nM and 15.9 nM and 9.9 nM (2×) and 16.4 nM
  concentration in Muscle (R, deltoid): 24.2 nM (2×) and 17.7 nM and 17.5 nM and 15.8 nM and 12.4 nM and 16.5 nM and 23.1 nM and 29.3 nM and 33.2 nM
  concentration in Occipital Cortex: 9.8 nM (2×) and 9.6 nM and 12.7 nM and 12.3 nM and 14.1 nM and 14.0 nM and 13.6 nM and 19.2 nM
  concentration in Olfactory Bulbs: 44.4 nM and 39.9 nM and 128.1 nM and 168.8 nM and 66.2 nM and 220.9 nM and 123.5 nM and 74.5 nM and 157.1 nM and 48.2 nM
  concentration in Olfactory Epithelium: 17,707.4 nM and 21,919.4 nM and 21,270.9 nM and 41,836.8 nM and 17,083.5 nM and 31,983.9 nM and 38,661.3 nM and 13,736.3 nM and 17,247.4 nM and 26,179.4 nM
  concentration in Optic Chiasm: 20.7 nM and 14.4 nM and 41.3 nM and 34.7 nM and 51.4 nM and 8.4 nM and 38.2 nM and 27.0 nM and 28.7 nM
  concentration in Parietal Cortex: 7.5 nM and 8.5 nM and 10.5 nM and 9.0 nM and 10.1 nM and 18.5 nM and 14.3 nM and 12.8 nM and 17.6 nM and 12.3 nM
  concentration in Pituitary: 86.9 nM and 44.0 nM and 58.9 nM and 51.8 nM and 79.3 nM and 59.7 nM and 44.3 nM and 67.9 nM and 48.1 nM
  concentration in Pons: 12.4 nM and 10.0 nM and 13.9 nM and 16.2 nM and 10.1 nM and 22.0 nM and 18.6 nM and 10.6 nM and 20.4 nM and 10.2 nM
  concentration in Posterior Trigeminal Nerve: 82.3 nM and 37.8 nM and 60.5 nM and 48.7 nM and 47.7 nM and 50.2 nM and 35.9 nM and 70.5 nM and 32.6 nM
  concentration in Renal artery (L): 56.2 nM and 67.3 nM and 103.1 nM and 52.8 nM and 55.8 nM and 26.1 nM and 43.0 nM and 78.9 nM and 66.9 nM and 31.2 nM
  concentration in Respiratory Epithelium: 78,502.7 nM and 75,759.2 nM and 26,815.1 nM and 82,292.8 nM and 126,759.8 nM and 34,402.4 nM and 71,775.8 nM and 107,890.6 nM and 91,206.0 nM and 64,295.5 nM
  concentration in Septal Nucleus: 9.5 nM and 8.2 nM and 13.3 nM and 13.6 nM and 10.2 nM and 19.4 nM and 12.9 nM and 9.8 nM and 12.0 nM
  concentration in Spinal Dura: 23.1 nM and 26.3 nM and 36.1 nM and 21.4 nM and 16.9 nM and 26.6 nM and 26.2 nM and 39.7 nM and 20.1 nM and 29.5 nM
  concentration in Spleen (tip): 29.0 nM and 81.5 nM and 35.1 nM and 87.5 nM and 91.1 nM and 82.9 nM and 75.4 nM and 89.8 nM and 73.8 nM and 80.0 nM
  concentration in Striatum: 8.2 nM and 5.5 nM and 8.5 nM and 6.7 nM and 7.23 nM and 14.9 nM and 10.4 nM and 9.5 nM and 15.1 nM and 11.9 nM
  concentration in Superficial Nodes (2): 58.8 nM and 39.9 nM and 42.2 nM and 60.1 nM and 66.8 nM and 69.0 nM and 94.2 nM and 68.9 nM and 68.0 nM
  concentration in Temporal Cortex: 9.9 nM and 7.8 nM and 11.65 nM and 10.4 nM and 14.2 nM and 16.6 nM and 15.6 nM and 12.5 nM and 13.7 nM and 11.5 nM
  concentration in Thalamus: 7.9 nM and 6.7 nM and 12.2 nM (2×) and 10.5 nM and 8.1 nM and 15.4 nM and 14.0 nM and 7.2 nM and 9.1 nM
  concentration in Thoracic Spinal Cord: 5.5 nM and 5.1 nM and 6.7 nM and 4.5 nM and 4.2 nM and 6.5 nM and 4.7 nM and 5.7 nM and 4.1 nM and 5.0 nM
  concentration in Thyroid: 1,730.9 nM and 2,077.1 nM and 2,106.5 nM and 1,369.2 nM and 2,644.1 nM and 2,380.4 nM and 1,219.8 nM and 2,016.7 nM and 2,148.4 nM and 2,013.3 nM
  concentration in Trachea: 58.5 nM and 116.8 nM and 64.5 nM and 93.6 nM and 44.8 nM and 59.3 nM and 65.1 nM and 110.6 nM and 86.4 nM
  concentration in Upper Cervical Spinal Cord: 16.0 nM and 17.0 nM and 18.18 nM and 31.6 nM and 18.8 nM and 35.1 nM and 37.2 nM and 20.4 nM and 27.0 nM and 12.8 nM
  concentration in Urine: 249.2 nM and 79.5 nM and 190.9 nM and 57.8 nM and 51.1 nM and 65.6 nM and 287.4 nM and 95.8 nM and 139.2 nM and 90.6 nM
  concentration in Ventral Dura: 113.7 nM and 71.6 nM and 29.8 nM and 138.3 nM and 165.6 nM and 259.4 nM and 192.6 nM and 150.8 nM and 211.8 nM and 96.1 nM
